Data from patent US20260217797A1.

Legend:
[1] = molecular target: SARS-CoV-2 Alpha (B.1.1.7) spike protein (on reporter virus particles) (SARS-CoV-2) (UniProt P0DTC2); experiment: cell-based or functional assay
[2] = molecular target: SARS-CoV-2 Beta (B.1.351) spike protein (on reporter virus particles) (SARS-CoV-2) (UniProt P0DTC2); experiment: cell-based or functional assay
[3] = molecular target: SARS-CoV-2 Epsilon (B.1.427/429) spike protein (on reporter virus particles) (SARS-CoV-2) (UniProt P0DTC2); experiment: cell-based or functional assay
[4] = molecular target: SARS-CoV-2 Gamma (P.1) spike protein (on reporter virus particles) (SARS-CoV-2) (UniProt P0DTC2); experiment: cell-based or functional assay
[5] = molecular target: SARS-CoV-2 B.1.617.1 (Kappa) RBD (SARS-CoV-2) (UniProt P0DTC2); experiment: Octet BLI single point, monovalent
[6] = molecular target: SARS-CoV-2 B.1.617.2 (Delta) RBD (SARS-CoV-2) (UniProt P0DTC2); experiment: Octet BLI single point, monovalent
[7] = molecular target: SARS-CoV-2 B.1.351 (Beta) RBD (SARS-CoV-2) (UniProt P0DTC2); experiment: Octet BLI single point, monovalent
[8] = molecular target: SARS-CoV-2 P.1 Spike (Gamma) (SARS-CoV-2) (UniProt P0DTC2); experiment: Octet BLI single point, monovalent

## RGN10933 (antibody)
[1]
  PsV neutralization IC50: 0.0064 µg/mL
  PsV neutralization IC90: 0.081 µg/mL
[2]
  PsV neutralization IC50: 0.897 µg/mL
  PsV neutralization IC90: 8.28 µg/mL
[3]
  PsV neutralization IC50: 0.0074 µg/mL
  PsV neutralization IC90: 0.058 µg/mL
[4]
  PsV neutralization IC50: 3.89 µg/mL
  PsV neutralization IC90: 16.2 µg/mL
[5]
  Kd: 12 nM
[6]
  Kd: 2.7 nM

## RGN10987 (antibody)
[7]
  Kd: 15 nM
[5]
  Kd: 3.05 nM
[6]
  Kd: 9.65 nM
[8]
  Kd: 12.5 nM
